Measured values reported in patent US20140249073A1.

Columns and labels:
[1] = target: T1, fluorogenic peptide substrate decanoyl-LSSPAY(NO2)A-ADK(abz)PD
T1 chain: LSSPAYAADKPD

[2] = target: T2, fluorogenic peptide substrate decanoyl-LTPTAY(NO2)A-ASK(abz)DD
T2 chain: LTPTAYAASKDD

B1: Full length His-tagged S. aureus SPase (protein)
chain: MKKELLEWIISIAVAFVILFIVGKFIVTSYTIKGESMDPTLKDGERVAVNIIGYKTGGLEKGNVVVFHANKNDDYVKRVIGVPGDKVEYKNDTLYVNGKKQDEPYLNYNLKHKQGDYITGTFQVKDLPNANPKSNVIPKGKYLVLGDNREVSKDSRAFGLIDEDQIVGKVSFRFWPFSEFKHNFNPENTKN
- second order rate constant (Kcat/Km) of substrate cleavage [1]: 10^5 M^-1 s^-1
- second order rate constant (Kcat/Km) of substrate cleavage [2]: 10^5 M^-1 s^-1
